Experimental data as given in patent US20240343820A1.

Target: anti-CD20 scFv-14
Assay: Octet (BLI) equilibrium binding, hybridoma supernatant; antigen format not stated

| Kd | Binder |
| --- | --- |
| 0.382 nM | 25B2 (antibody, V domains shown) VH: QIQLVQSGPELKKPGETVKISCKASGYTFTTYGMSWVKQAPGKGLKWMGWINTYSGVPTYADDFKGRFAFSLETSASTAYLQINNLKNEDTATYFCARTYYGNYFDYWGQGTTLTVSS VL: DIQMTQSPSSLSASLGGKVTITCKASQDINKYIAWYQHKPGKGPRLLIHYTSTLQPGIPSRFSGSGSGRDYSFSISNLEPEDIATYYCLQYDNLYTFGGGTKLEIK |
| 0.00408 nM | 25F10 (antibody, V domains shown) VH: QVHLQQSGPELVKPGASVKISCKASGYSFTSYYIHWVKQRPGQGLEWIGWIYPRSGNTNYNEKFKDKATLAADTSSSAAYMQLSSLTSEDSAVYYCGRSDFYYGSDYWGQGTTLTVSS VL: DIQMTQSPSSLSASLGERVSLTCRASQEISGYLGWLQQKPDGTIKRLIYAASTLDSGVPRRFSGSRSGSDYSLTFSSLESEDFADYYCLQYASYPWTFGGGTKLEIK |
| 0.00131 nM | 29F8 (antibody, V domains shown) VH: QIQLVQSGPELKKPGETVKISCKASGYTFTTYGMSWVKQAPGKGLKWMGWINTYSGVPTYADDFKGRFAFSLETSASTAYLQINNLKNEDSATYFCARYYYGSNYDYWGQGTTLTVSS VL: DIQMTQSPASLSASVGETVTITCRASENIYSYLAWYQQKQGKSPQLLVNNAKTLAEGVPSRFSGSGSGTQFSLKINSLQPEDFGSYYCQHHYGSPPTFGSGTKLEIK |
| 0.0534 nM | 29F1 (antibody, V domains shown) VH: QIQLVQSGPELKKPGETVKISCKASGYTFTTYGMSWVKQAPGKGLKWMGWINTYSGVPTYADDFKGRFAFSLETSASTAYLQINNLKNEDTATYFCARFYYGSSFDYWGQGTTLTVSS VL: DIQMTQSPASLSASVGETVTITCRASENIYSYLAWYQQKQGKSPQLLVYNAKTLAEGVPSRFSGSGSGTQFSLKINSLQPEDFGSYYCQHHYGTPLTFGAGTKLELK |
| 0.00138 nM | 24C12 (antibody, V domains shown) VH: QVQLQQSGAELMKPGASVKLSCKATGHTFTGYWIEWVKQRPGHGLEWIGEILPGSGSTNYNEKFKGKATFTADTSSNTAYMQLSSLTTEDSAIYYCAREGFAYWGQGTLVTVSA VL: DIVMTQSHKFMSTSVGDRVSITCKASQDVGIAVAWYQQKPGQSPKLLIYWASTRHTGVPDRFTGSGSGTDFTLTISNVQSEDLADYFCQQYSSYPYTFGGGTKLEIK |

Continued, binder first:

| Binder | Kd |
| --- | --- |
| 23E1 (antibody, V domains shown) VH: EVQLQQSGPVLVKPGPSVKISCKASGFTFTDYYMHWVKQSHGKSLEWIGLVYPYNGGTSYNQKFKGKATLTVDTSSSTAYMELNSLTSEDSAVYYCARRGQRVWYFDVWGTGTTVTVSS VL: DIQMTQSPSSLSASLGGKVTITCKASQDINKYIAWYQHKPGKGPRLLIHYTSTLQPGIPSRFSGSGSGRDYSFSISNLEPEDIATYYCLQYDNLYTFGGGTKLEIK | 3.28 nM |
| 24C7 (antibody, V domains shown) VH: QVQLQQSGPELVKPGASVKISCKASGYSFTSYYIHWVKQRPGQGLEWIGWIYPGSGNTKYNEKFKGKATLTADTSSSTAYMQLSSLTSEDSAVYYCARCVLLDYFDYWGQGTTLTVSS VL: DIQMTQSPSSLSASLGERVSLTCRASQEISGYLSWLQQKPDGTIKRLIYAASTLDSGVPKRFSGSRSGSDYSLTISSLESEDFADYYCLQYASYPYTFGGGTKLEIK | 3.9 nM |
| 23C11 (antibody, V domains shown) VH: QVQLQQPGAELVRPGSSVKLSCKASGYTFTSYWMHWVKQRPIQGLEWIGNIDPSDSETHYNQKFKDKATLTVDKSSSTAYMQLSSLTSEDSAVYYCARAGRVFYYAMDYWGQGTSVTVSS VL: DIQMTQTTSSLSASLGDRVTISCRASQDISNYLNWYQQKPDGTVKLLIYYTSRLHSGVPSRFSGSGSGTDYSLTISNLEQEDIATYFCQQGNTLYTFGGGTKLEIK | 3.72 nM |
| 22H5 (antibody, V domains shown) VH: DVQLQESGPGMVKPSQSLSLTCTVTGYSITSGYDWHWIRHFPGNKLEWMGYISYSGSTNYNPSLKSRISITHDTSKNHFFLKLNSVTTEDTATYYCAREGYSNYFDSWGQGTTLTVSS VL: SIVMTQTPKFLLVSAGDRVTITCKASQSVSNDVAWYQQKPGQSPKLLIFYASNRYTGVPDRFTGSGYGTDFTFTISTVQAEDLAVYFCQQDYSSPLAFGAGTKLELK | 0.633 nM |
